# Patent publication US20090291088A1, “THERAPEUTIC COMBINATIONS OF ANTI-IGF-1R ANTIBODIES AND OTHER COMPOUNDS” (Biogen Idec MA Inc., priority 2008, published 2009)
# Legend:
# IGF-1R = biological target: T1, IGF-1R (Homo sapiens, UniProt P08069); assay: Ligand blocking assay (RIA): 125I-IGF-1 / 125I-IGF-2 binding to immobilized IGF-1R
# T1 construct: human IGF-1R(1-903)-Fc (denoted hIGF-1R-Fc, generated by Biogen Idec)
# Procedure, shortened: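 Recombinant His-tagged IGF-1R or IGF-1R-Fc coated at 250 ng/well (or IGF-1R-Fc captured via anti-human IgG); antibody or Fab preincubated 45 min at room temperature, then 100,000 cpm [125I]rhIGF-1 or rhIGF-2 added for 1 h. Bound radioactivity gamma-counted; % inhibition relative to buffer-only wells.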
# IGF-1R phosphorylation = biological target: T2, IGF-1R phosphorylation (Homo sapiens, UniProt P08069); assay: Inhibition of IGF-1 and IGF-2 mediated IGF-1R phosphorylation in MCF-7 cells (ELISA); type: cell-based; conditions: for Inhibition of IGF-1R Phosphorylation IGF-1 / Inhibition of IGF-1R Phosphorylation IGF-2: Fabs, MCF-7; for Inhibition of IGF-1R Phosphorylation IGF-1: IGF-1 stimulated; for Inhibition of IGF-1R Phosphorylation IGF-2: IGF-2 stimulated; for Inhibition of IGF-1R.pTyr IGF-1 / Inhibition of IGF-1R.pTyr IGF-2: murine monoclonal antibodies
# T2 construct: wild type IGF-1R expressed on MCF-7 tumor cells; endogenous in cells; host or cells: MCF-7
# Procedure, shortened: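 Serum-starved MCF-7 cells were preincubated 1 h with antibodies (Fabs at 200, 20, 2 nM; mAbs at 67, 6.7, 0.67 nM) at room temperature or 37 °C, then stimulated with IGF-1 or IGF-2. Phospho-IGF-1R in lysates was captured by ELISA and detected with anti-phosphotyrosine 4G10 (OD450); % inhibition over ligand control.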
Molecule,"IGF Blocking IGF-2 (IGF-1R; Fabs, 125I-IGF-2)",Inhibition of IGF-1R Phosphorylation IGF-1 (IGF-1R phosphorylation),Inhibition of IGF-1R Phosphorylation IGF-2 (IGF-1R phosphorylation),IGF Blocking IGF-1 (IGF-1R; murine monoclonal antibodies),IGF Blocking IGF-2 (IGF-1R; murine monoclonal antibodies),Inhibition of IGF-1R.pTyr IGF-1 (IGF-1R phosphorylation),Inhibition of IGF-1R.pTyr IGF-2 (IGF-1R phosphorylation)
"Fab M12-E01: human anti-human IGF-1R Fab from phage display library; VH SEQ ID NO:4, VL SEQ ID NO:68 (antibody, V domains shown, Antibody variable heavy chain sequence; Antibody variable light chain sequence) VH: EVQLLESGGGLVQPGGSLRLSCAASGFTFSPYSMLWVRQAPGKGLEWVSSIGSSGGSTRYADSVKGRFTISRDNSKNTLYLQMNSLRAEDTAMYYCARVRGILHYDILIGRNLYYYYMDVWGKGTTVTVSS VL: QYELTQPPSVSEAPRQRVTISCSGSSSNIGNNAINWYQQLPGKPPKLLIYYDDLLPSGVSDRFSGSKSGTSGSLAISGLQSEDEADYYCAAWDDNLNGVIFGGGTKLTVL",++ (>30%@1ug/ml),++ (>30%@1ug/ml),+ (>30%@10 ug/ml),,,,
"20C8.3B8: murine anti-human IGF-1R monoclonal antibody from hybridoma; VH SEQ ID NO:43, VL SEQ ID NO:103 (antibody, V domains shown, Antibody variable heavy chain sequence; Antibody variable light chain sequence) VH: DVQLQESGPDLVKPSQSLSLTCTVTGYSITSGYSWHWIRQFPGNKLEWMGYIHYSGGTNYNPSLKSRISITRDTSKNQFFLQLNSVTTEDTATYYCARSGYGYRSAYYFDYWGQGTTVTVSS VL: DIVLTQSPASLAVSLGQRATISCRASKSVSTSAYSYMHWYQQKPGQPPKLLIYLASNLESGVPARFSGSGSGTDFTLNIHPVEEEDAATYYCQHSRELPYTFGGGTKLEIK",,,,+++ (>40%@0.1 μg/ml),+++ (>40%@0.1 μg/ml),+++ (>30%@0.1 μg/ml),++ (>30%@1 μg/ml)
"20D8.24B11: murine anti-human IGF-1R monoclonal antibody from hybridoma; VH SEQ ID NO:53, VL SEQ ID NO:103 (antibody, V domains shown, Antibody variable heavy chain sequence; Antibody variable light chain sequence) VH: DVQLQESGPDLVKPSQSLSLTCTVTGYSITSGYSWHWIRQFPGNKLEWMGYIHYSGGTNYNPSLKSRISITRDTSKNQFFLQLNSVTTEDTATYYCARSGYGYRSAYYFDYWGQGTTLTVSS VL: DIVLTQSPASLAVSLGQRATISCRASKSVSTSAYSYMHWYQQKPGQPPKLLIYLASNLESGVPARFSGSGSGTDFTLNIHPVEEEDAATYYCQHSRELPYTFGGGTKLEIK",,,,+++ (>40%@0.1 μg/ml),+++ (>40%@0.1 μg/ml),+++ (>30%@0.1 μg/ml),++ (>30%@1 μg/ml)
"M14-C03: anti-IGF-1R antibody, allosteric blocker of IGF-1 and IGF-2 (antibody, V domains shown, Antibody variable heavy chain sequence; Antibody variable light chain sequence) VH: EVQLLESGGGLVQPGGSLRLSCAASGFTFSKYMMSWVRQAPGKGLEWVSYISPSGGLTWYADSVKGRFTISRDNSKNTLYLQMNSLRAEDTAVYYCARDGARGYGMDVWGQGTTVTVSS VL: DIQMTQSPATLSLSPGERATLSCRASQSVSSYLAWYQQKPGQAPRLLIYDASNRATGIPARFSGSGSGTDFTLTISSLEPEDFAVYYCQQRSNWPPEVTFGPGTKVDIK",+ (>30%@10ug/ml),++ (>30%@1ug/ml),++ (>30%@1ug/ml),,,,
